Changes are numbered by the printed parent chain. In names and notes the source's numbering stands.
Experiments:
Format in all cases: biochemical
[1] = Comparison of products synthesized by wild type and AS variant I228Y (HPAEC/HPLC); conditions: for recognition of α-L-RhapO-Me as an acceptor: purified enzyme, HPLC, FIG. 7A
Method: All assays were performed at 30° C. in 50 mM Tris buffer, pH=7.0.
Comparison of products synthesized by wild type and AS variant. Reactions were performed in the presence of 146 mM sucrose alone or supplemented with 146 mM acceptor. The purified wild-type or mutated GST/AS were employed at 0.5 U/mL. The reactions were stopped by heating at 95° C. for […]. The final mixture was centrifuged at 18 000 g for 5 min.
Soluble and insoluble oligosaccharides produced during the reaction were identified by HPAEC using a Dionex Carbo-Pack PA100 column at 30° C. Before analysis, the insoluble fraction was solubilised in KOH at a final total sugar concentration of 10 g/kg. Mobile phase (150 mM NaOH) was set at 1 mL/min flow rate with a sodium acetate gradient (going from 6 to 500 mM within 120 min). Detection was performed using a Dionex ED40 module with a gold working electrode and an Ag/AgCl pH reference. Note that α-L-Rhap-OMe (acceptor) and its derivatives are not oxidable products and thus are not detectable by HPAEC. Sucrose, glucose, fructose, α-L-Rhap-OMe (acceptor) and its derivatives (glucosylation products) were quantified by HPLC, as previously described.

[2] = Determination of kinetic parameters (catalytic efficiency) of ASNPwt and I228Y; conditions: for activation in the presence of α-L-RhapO-Me: increasing concentration of acceptor, FIG. 7D(b), 7E
Method: Catalytic efficiency (Eff=kcat/KM) of ASNPwt and I228Y variant were determined with both sucrose (D=Donor) and methyl α-L-rhamnopyranoside (A=Acceptor) as variable substrates. For the determination of the catalytic efficiency for D, A was held constant at 250 mM and D was varied between 0 and 600 mM. For the determination of the catalytic efficiency for A, D was held constant at 250 mM and A was varied between 0 and 500 mM. Experiments were performed until A and D solubility limits were reached. For each experiment, two distinct reaction velocities were determined: (1) the donor consumption determined by the release of fructose (called Vi (F)), corresponding to the overall kinetics of the different reactions described in FIG. 3 and (2) the acceptor glucosylation determined by the formation of α-D-Glcp-(1→3)-α-L-RhapOMe (called Vi(Dp2)), corresponding to the kinetics of the reaction of interest.
Initial velocities were fitted to the Michaelis-Menten equation using Sigma-Plot. As saturation was not achieved with the mutant, efficiency was calculated by linear regression analysis of the velocity versus substrate concentration plot. Aliquots (200 μL) were removed between 0 and 60 min (at which time product formation was still linear with respect to time), heated at 95° C. for 5 min and centrifuged at 18 000 g for 5 min. The final mixtures were filtered on a 0.22 μm membrane and analyzed using HPLC material previously described. HPLC analyses were performed using two columns: 1) a Biorad HPLC Carbohydrate Analysis column (HPX-87H column (300×7.8 mm)) maintained at 30° C., using ultra-pure water as eluent with a flow rate of 0.6 mL/min; 2) a reversed phase analytical column (Synergi C18RPFusion, 4 μm, 30×4.6 mm) kept at room temperature, with 1 ml/min of ultra-pure water as eluent. HPX-87H column was used to determine the released fructose by RI detection. C18RPfusion column was used to detect the formation of α-D-Glcp-(1→3)-α-L-RhapOMe.

[3] = Screening of AS single mutant library for glucosylation of α-L-Rhap-OMe (HPLC); conditions: FIG. 6
Method: The protocol was established to enable the rapid identification of clones able to glucosylate α-L-Rhap-OMe (formula II). To obtain higher amounts of enzymes and facilitate detection of glucosylated compounds upon HPLC screening, mutants were produced in 96-DeepWell Format plates. Storage microplates containing monomutants were thawed and replicated to inoculate a starter culture in 96-well microplates containing, in each well, 150 μL LB medium supplemented with ampicillin (100 μg/mL). After growth for 24 h at 30° C. under agitation (200 rpm), plates were duplicated into 96-Deep Well plates containing, in each well, 1.1 mL LB medium supplemented with ampicillin (100 μg/mL) and IPTG (1 mM) to induce GST-AS expression. Cultures were then grown for 24 h at 30° C. under agitation (200 rpm). […]
Efficiency of the glucosylation reaction was evaluated by HPLC analysis of the acceptor reaction product synthesized when using α-L-Rhap-OMe as acceptor using a Dionex P 680 series pump, a Shodex RI 101 series refractometer, a Dionex UVD 340 UV/Vis detector and an autosampler HTC PAL. […]
For each of the 7 selected positions, 19 single mutants were generated (corresponding to each possible amino acid change). […] Both sucrose consumption and disaccharide formation were determined in order to calculate the glucosylation rate defined as the molar ratio of monoglucosylated acceptor versus/sucrose consumed.

[4] = Enzymatic glucosylation of α-L-Rhap-OAll by 1G5A mutants; conditions: sucrose donor and α-L-Rhap-OAll acceptor 1:1, 50 mM
Method: (§1) The enzymatic reaction was carried out using sucrose as donor and rhamnose derivative as acceptor in a 1:1 ratio (146 mM for L-Rhap, 50 mM for α-L-Rhap-OAll).
(§2) Efficiency of the glucosylation reaction was evaluated by HPLC analysis of the acceptor reaction product synthesized using a reversed phase analytical column (Synergi C18RPFusion, 4 μm, 30×4.6 mm) (when testing L-Rhap) and a Biorad HPLC Carbohydrate Analysis column (HPX-87K column (300×7.8 mm)) when testing α-L-Rhap-OAll. (cf. Example 1/Materials and Methods/Screening of mutant library)

[5] = Enzymatic glucosylation of L-Rhap by 1G5A mutants; conditions: sucrose donor and L-Rhap acceptor 1:1, 146 mM
Method: as §1, §2

[6] = 146 mM sucrose supplemented with 146 mM acceptor

B1: wild type AS: Wild type glycoside hydrolase: amylosucrase (ASNPwt) 1G5A of sequence SEQ ID NO: 13, from Neisseria polysaccharea (protein, listed as Neisseria polysaccharea)
chain: SPNSQYLKTRILDIYTPEQRAGIEKSEDWRQFSRRMDTHFPKLMNELDSVYGNNEALLPMLEMLLAQAWQSYSQRNSSLKDIDIARENNPDWILSNKQVGGVCYVDLFAGDLKGLKDKIPYFQELGLTYLHLMPLFKCPEGKSDGGYAVSSYRDVNPALGTIGDLREVIAALHEAGISAVVDFIFNHTSNEHEWAQRCAAGDPLFDNFYYIFPDRRMPDQYDRTLREIFPDQHPGGFSQLEDGRWVWTTFNSFQWDLNYSNPWVFRAMAGEMLFLANLGVDILRMDAVAFIWKQMGTSCENLPQAHALIRAFNAVMRIAAPAVFFKSEAIVHPDQVVQYIGQDECQIGYNPLQMALLWNTLATREVNLLHQALTYRHNLPEHTAWVNYVRSHDDIGWTFADEDAAYLGISGYDHRQFLNRFFVNRFDGSFARGVPFQYNPSTGDCRVSGTAAALVGLAQDDPHAVDRIKLLYSIALSTGGLPLIYLGDEVGTLNDDDWSQDSNKSDDSRWAHRPRYNEALYAQRNDPSTAAGQIYQDLRHMIAVRQSNPRFDGGRLVTFNTNNKHIIGYIRNNALLAFGNFSEYPQTVTAHTLQAMPFKAHDLIGGKTVSLNQDLTLQPYQVMWLEIA
With B1 the “effect of the presence of α-L-RhapO-Me in the reaction medium on the product profile” value [1, 6] was “does not affect the product profile”, the “recognition of α-L-RhapO-Me as an acceptor” value [1, 6] was “does not recognize at all α-L-RhapO-Me as an acceptor” and the “activation in the presence of α-L-RhapO-Me” value [2] was “no activation”. For the same molecule, the catalytic efficiency ([2]; sucrose constant 250 mM, varied acceptor concentration) was “null catalytic efficiency”, the “Vi(Dp2) (acceptor glucosylation velocity)” value ([2]; sucrose constant 250 mM, varied acceptor concentration, FIG. 7E) was 0 and the “recognition of α-L-Rhap-OMe as acceptor / ability to form the desired disaccharide” value [3] was “does not recognize the α-L-RhapO-Me as an acceptor”. For the same molecule, the “ability to glucosylate α-L-Rhap-OAll” value [4] was “lacks this newly described specific activity” and the “glucosylation of L-rhamnose with α-(1→3) linkage” value [5] was “lacks this newly described specific activity”.

B2: I228Y: 1G5A (N. polysaccharea amylosucrase, SEQ ID NO: 13) single mutant, isoleucine 228 replaced by tyrosine (protein, listed as Neisseria polysaccharea)
chain: B1 chain with I228Y
With B2 the “recognition of α-L-RhapO-Me as an acceptor” value [1, 6] was “recognizes α-L-RhapO-Me as an acceptor to form in majority a Dp2”, the major reaction occurring ([1]; sole presence of sucrose) was “Hydrolysis” and the “highest Dp observed (maltooligosaccharide chains)” value ([1]; sole presence of sucrose, 146 mM, FIG. 7B) was 5. For the same molecule, the “activation in the presence of α-L-RhapO-Me” value [2] was “clear activation” and the “glucosylation of L-rhamnose with α-(1→3) linkage” value [5] was “observed for all mutants except I228Y”.

— patent US20110144317A1, “MUTANTS OF GLYCOSIDE HYDROLASES AND USES THEREOF FOR SYNTHESIZING COMPLEX OLIGOSACCHARIDES AND DISACCHARIDE INTERMEDIATES” (priority 2008, published 2011)
